From US5968514 come the findings set out here.

The target in experiment [1] is HLA-DR on Raji cells (human). As to the kind of experiment: antibody blocking of labelled peptide binding to Raji cells.
For experiment [2], the target named is class II MHC antigens on antigen-presenting cells of human peripheral mononuclear cells.
Experiment [3] has the same target. This is another data set of the same source.
The target is the same in experiment [4]. This is another data set of the same source.
Experiment [5] has as its target human class II MHC molecules on Raji cells.
For experiment [6] the target is unchanged. In words: competition with ^125 I-HIV-1 Nef(123-160) on Raji cells.
The target of experiment [7] is murine class II MHC molecules on A20 cells (I-A^d and I-E^d).
The target of experiment [8] is DR1 on DR1-transfected L cells (Homo sapiens (Human)) (UniProt P01903).
Experiment [9] deals with human class II MHC molecules on Raji cells. This is another data set of the same source.
Experiment [10] shares this target. In words: competition with ^125 I-SEA on Raji cells.
Experiment [11] deals with murine class II MHC molecules on A20 cells (I-A^d and I-E^d). As to the kind of experiment: competition with ^125 I-MMTV ORF(76-119) on A20 cells.
Experiment [12] has the same target. As to the kind of experiment: dose-response competition with ^125 I-SEA on A20 cells.

Values joined by “and” are separate entries in the source; they are usually repeats but may differ in a detail not shown here. Equal values may be shown once.

Substance “Clone L243, a monoclonal antibody specific for HLA-DR” gave a percent reduction of ^125 I-HIV-1 Nef(123-160) binding in experiment [1] of 35%.
Turning to “HIV-1 Nef protein (from UniProt P03406) (ligand)”, in experiment [2], the stimulation index (SI) of proliferation of whole human PMNC amounted to 26.4 SI. This substance came in with an IFNγ (U/ml) in supernatants of whole PMNC, 96 h in [3] of 1500 U/ml.
What is called IC50 is the concentration at which inhibition is half-maximal. A higher IC50 goes with a need for much substance. As to HIV-1 Nef(123-160) (peptide), in [4], the stimulation index (SI) of human PMNC proliferation induced by Nef was 3.9 SI and the stimulation index (SI) of human PMNC proliferation induced by SEA was 6.2 SI. Moreover, the percent reduction of ^125 I-SEA binding in experiment [5] was 20% and 40%. This substance yielded an IC50 in [6] of 30000 nM.
For HIV-1 Nef(156-186) (peptide), in [4], the stimulation index (SI) of human PMNC proliferation induced by Nef stood at 19.6 SI and the stimulation index (SI) of human PMNC proliferation induced by SEA stood at 16.6 SI.
SEE (from UniProt P12993) (ligand) came in with a half-maximal inhibitory concentration (IC50) in experiment [6] of 2000 nM.
In [2], “staphylococcal enterotoxin A (from UniProt P0A0L2) (ligand)” had a stimulation index (SI) of proliferation of whole human PMNC of 164 SI. The substance further registered an IFNγ (U/ml) in supernatants of whole PMNC, 72 h in experiment [3] of 3000 U/ml. In addition, the CPM bound in the absence of competitors in [7] was 6380 CPM; in experiment [8] it was 5710 CPM; in experiment [9] it was 31500 CPM. Moreover, the IC50 came out at 200 nM in experiment [10] and 1800 nM in [11]. In addition, the fold more effective a competitor than MMTV ORF(76-119) in experiment [12] turned out to be 20 times.
